Source: article PMC1807962 (Nucleic Acids Research, 2007)
Values joined by “and” are separate entries in the source; they are usually repeats but may differ in a detail not shown here. Equal values may be shown once.

Legend:
Assay in all cases: SEC
[1] = molecular target: Sso MCM ▵A/HTH (lacking both the A domain and the HTH domain) (Sulfolobus solfataricus)
[2] = molecular target: Sso MCM C-half (C-terminal half, AAA+ and HTH domains) (Sulfolobus solfataricus)
[3] = molecular target: Sso MCM AAA+ core domain (Sulfolobus solfataricus)
[4] = molecular target: Sso MCM ▵A (lacking the N-terminal A domain) (Sulfolobus solfataricus)
SEC = molecular target: the molecule itself

Sso MCM ▵A/HTH (lacking both the A domain and the HTH domain) (domain or fragment)
stoichiometry N [1]: 6

Sso MCM C-half (C-terminal half, AAA+ and HTH domains) (domain or fragment)
stoichiometry N [2]: 2

Sso MCM AAA+ core domain (domain or fragment)
stoichiometry N [3]: 2

Sso MCM ▵A (lacking the N-terminal A domain) (domain or fragment)
stoichiometry N [4]: 6

B1: Sulfolobus solfataricus MCM, full-length, wild-type (natural protein)
chain: MEIPSKQIDYRDVFIEFLTTFKGNNNQNKYIERINELVAYRKKSLIIEFSDVLSFNENLAYEIINNTKIILPILEGALYDHILQLDPTYQRDIEKVHVRIVGIPRVIELRKIRSTDIGKLITIDGILVKVTPVKERIYKATYKHIHPDCMQEFEWPEDEEMPEVLEMPTICPKCGKPGQFRLIPEKTKLIDWQKAVIQERPEEVPSGQLPRQLEIILEDDLVDSARPGDRVKVTGILDIKQDSPVKRGSRAVFDIYMKVSSIEVSQKVLDEVIISEEDEKKIKDLAKDPWIRDRIISSIAPSIYGHWELKEALALALFGGVPKVLEDTRIRGDIHILIIGDPGTAKSQMLQFISRVAPRAVYTTGKGSTAAGLTAAVVREKGTGEYYLEAGALVLADGGIAVIDEIDKMRDEDRVAIHEAMEQQTVSIAKAGIVAKLNARAAVIAAGNPKFGRYISERPVSDNINLPPTILSRFDLIFILKDQPGEQDRELANYILDVHSGKSTKNIIDIDTLRKYIAYARKYVTPKITSEAKNLITDFFVEMRKKSSETPDSPILITPRQLEALIRISEAYAKMALKAEVTREDAERAINIMRLFLESVGVDMESGKIDIDTIMTGKPKSAREKMMKIIEIIDSLAVSSECAKVKDILKEAQQVGIEKSNIEKLLTDMRKSGIIYEAKPECYKKV
stoichiometry N (SEC): ≤ 12 and 6
